Test results reported in PMC5726920 (Nature chemical biology, 2017).

Target: the molecule itself
Assay: native MS

B1: human mitochondrial superoxide dismutase (enzyme)
chain: KHSLPDLPYDYGALEPHINAQIMQLHHSKHHAAYVNNLNVTEEKYQEALAKGDVTAQIALQPALKFNGGGHINHSIFWTNLSPNGGGEPKGELLEAIKRDFGSFDKFKEKLTAASVGVQGSGWGWLGFNKERGHLQIAACPNQDPLQGTTGLIPLLGIDVWEHAYYLQYKNVRPDYLKAIWNVINWENVTERYMACKK
  stoichiometry N: 4

B2: 3-hydroxyisobutyrate dehydrogenase (enzyme)
chain: ASKTPVGFIGLGNMGNPMAKNLMKHGYPLILYDVFPDVCKEFKEAGEQVASSPAEVAEKADRIITMLPSSMNAVEVYSGANGILKKVKKGSLLIDSSTIDPSVSKELAKEVEKMGAVFMDAPVSGGVGAARSGNLTFMVGGVEDEFAAAQELLECMGSNVVYCGAVGTGQSAKICNNMLLAISMIGTAEAMNLGIRSGLDPKLLAKILNMSSGRCWSSDTYNPVPGVMHGVPSSNNYQGGFGTTLMAKDLGLAQDSATSTKTPILLGSLAHQIYRMMCSKGYSKKDFSSVFQYLREEEPF
  stoichiometry N: 4

B3: NAD(P)H-hydrate epimerase (enzyme)
chain: ASTVVKYLSQEEAQAVDQELFNEYQFSVDQLMELAGLSCATAIAKAYPPTSMSRSPPTVLVICGPGNNGGDGLVCARHLKLFGYEPTIYYPKRPNKPLFTALVTQCQKMDIPFLGEMPAEPMTIDELYELVVDAIFGFSFKGDVREPFHSILSVLKGLTVPIASIDIPSGWDVEKGNAGGIQPDLLISLTAPKKSATQFTGRYHYLGGRFVPPALEKKYQLNLPPYPDTECVYRLQ
  stoichiometry N: 2

B4: creatine kinase M from mouse heart (enzyme)
chain: not shown
  stoichiometry N: 2

B5: murine cytosolic aspartate aminotransferase (enzyme)
chain: MAPPSVFAQVPQAPPVLVFKLTADFRDDPDPRKVNLGVGAYRTDESQPWVLPVVRKVEQKIANDNSLNHEYLPILGLAEFRSCASRLVLGDNSLAIRENRVGGVQSLGGTGALRIGADFLGRWYNGTDNKNTPIYVSSPTWENHNAVFSAAGFKDIRPYCYWDAEKRGLDLQGFLNDLENAPEFSIFVLHACAHNPTGTDPTPEQWKQIAAVMQRRFLFPFFDSAYQGFASGDLEKDAWAIRYFVSEGFELFCAQSFSKNFGLYNERVGNLTVVGKESDSVLRVLSQMEKIVRITWSNPPAQGARIVAATLSDPELFKEWKGNVKTMADRILTMRSELRARLEALKTPGTWSHITEQIGMFSFTGLNPKQVEYLVNEKHIYLLPSGRINMCGLTTKNLDYVATSIHEAVTKIQ
  stoichiometry N: 2

B6: mitochondrial malate dehydrogenase (enzyme)
chain: AKVAVLGASGGIGQPLSLLLKNSPLVSRLTLYDIAHTPGVAADLSHIETKAAVKGYLGPEQLPDCLKGCDVVVIPAGVPRKPGMTRDDLFNTNATIVATLTAACAQHCPEAMICVIANPVNSTIPITAEVFKKHGVYNPNKIFGVTTLDIVRANTFVAELKGLDPARVNVPVIGGHAGKTIIPLISQCTPKVDFPQDQLTALTGRIQEAGTEVVKAKAGAGSATLSMAYAGARFVFSLVDAMNGKEGVVECSFVKSQETECTYFSTPLLLGKKGIEKNLGIGKVSSFEEKMISDAIPELKASIKKGEDFVKTLK
  stoichiometry N: 2
